# Source: the DeepSol protein solubility set
# Experiment: soluble on expression in E. coli; label from the status in PepcDB or PDB records
row,Sequence,soluble on expression in E. coli
1,MSLSMKKERGVVYTPLKISNYIIDSTISEEDIIKNPFLKIVDPACGCGNIIIPCFIYLRNIYIKNLDKINNINKLELREENINYHIIKNNLFGYDVDLNAIKVLTIDLFCESKCFSSNFLCKDFLLDEIGIKYDIFLSNPPYVGLKSINKEYSAILKTMYPSYKDKADISYCFFEKSILCLKIDGKLGFITSRYFLESQSGEELRRILVEKCSLYKIVDFYGIRPFKKAGIDTVMIFLERGIGDRKSIEIIKPKIMKNNRKDEFYYSLFNGTNEGIDKFYINIKALDSKRWILRKDEEIDIINKIEKNSEGHHHHHH,not soluble
2,MSLSNDRYSMSFTTGSLFHRESVKLAALYLDLGDWNSVRDKVIAENLLQTRTLNTLKRVCREIISRLRTMNPGELDFLVEGSHQEQAYLLWLAVCRRYRFIADFAVEVLRERYITLKADLTHEDFDSFFNRKSEWHLELDEITPATRSKLRQVLFKILREADLLAANNMINAAMLSPRLSDVIHRGSRRDVSYFPLFESDLKGMAKEGHHHHHH,soluble
3,MSLSNYISIKGAKVNNLKNIDVNIPRNKLVVITGLSGSGKSSLAFDTLYAEGQRRYVESLSSYARQFLGRMSKPECDFIKGIPPAIAIEQKVNSRNPRSTVGTSTEIYEYLRLLYARVGKTYSPISGQLVKKHSIEDIVNCMLSFPKGTKYTVLTPMMPREGRTLLQQLEMDLKQGFTRIEVNREIVRIEDFLQQTAAEDKKQNIYLLVDRMTADDSKDSISRLTDSAETAMYEGDGNCLLRFYSADGSTQLFSFSTKFETDGIKFEEPNDQMFSFNSPLGACPECEGFGKVIGIDEHLVIPNRALSVYDGAVLCWRGEKMGEWLQEFIHEAPAHDFPIFAPYYELTQEQKDYLWHGPRNKACIDSFFKMLEENQYKIQYRVMLARYRGKTICPVCHGTRLKKEAGYVKVGGKSISQLVDLPIHDLKEFFRTLELDAHDTAIAKRILTEITNRINFLMDVGLGYLTLNRLSNSLSGGESQRINLATSLGSSLVGSLYILDEPSIGLHSRDTDRLIKVLRQLQELGNTVVVVEHDEEIIRAADYIIDIGPQAGRLGGQIVYQGNMNDLQRNEGHHHHHH,soluble
4,MSLSPTKTRRILFLLPYVADLSVGDFSKGLNPVMQDKQIDVMMTTLDFLQNKTAKELINEFDGLIYYALDTEQHLDLLFELSLKEFPVVILDKKIYELPFPTVLSDNFQGGALAASYLIEQGHSKIAYLFGTQTHPQSVRQRYLGYLEALDKAGLTFHTSLDDKSATLDELLSYITKYEVTAFVCENDVVAIQTMNLLRQHGYHIPEDFSIIGFDDIQAAALVDPPLTTIAQDFEQLGKLAGDALVTWLETKDRPSDSKFPVSFIKRQSTKEGHHHHHH,soluble
5,MSLSQGALYLVPTPIGNLEDMTFRAIRMLKEADIIAAEDTRNTVKLLNHFEITTRMTSYHQFTKENKEDNIIQRMLDGEVVALVSDAGMPSISDPGYELVQSALNANIPVIPLPGANAALTALIASGLAPQPFYFYGFLPRQNKERTQAIEKLAAREETWILYESPHRLKETLKAIIKITGNDRKIVLCRELTKRFEEFLRGTVEDALNWAMDEEVRGEFCLIIEGNANPPLAEEQLWWQELDIKTHVSTVMEQENVSSKDAIKTVMKARNLPKREVYSAYHEIKEGHHHHHH,soluble
6,MSLSQNASVGIVMPQKIPFEMPLVLENGKTLPRFDLMIETYGELNAEKNNAVLICHALSGNHHVAGRHSAEDKYTGWWDNMVGPGKPIDTERFFVVGLNNLGGCDGSSGPLSINPETGREYGADFPVVTVKDWVKSQAALADYLGIEQWAAIVGGSLGGMQALQWTISYPERVRHALVIASAPKLSTQNIAFNDVARQAILTDPDFNEGHYRSHNTVPARGLRIARMMGHITYLAEDGLGKKFGRDLRSNGYQYGFGVEFEVESYLRYQGDKFVGRFDANTYLLMTKALDYFDPAADFGDSLTRALQNVKAKFFVASFSTDWRFAPERSHELVKALIAAQKSVQYIEVKSAHGHDAFLMEDEAYMRAVAAYMNNVYKECQQEGHHHHHH,soluble
7,MSLSRIRKAPAGILGFPVAPFNTQGTLEEEALFQNIEFLLNEGLEAIFIACGSGEFQSLSQKEYEQMVEVAVSAAGGKVPVYTGVGGNLSTALDWAQLSEKKGADGYLILPPYLVHGEQEGLYQYAKTIIESTDLNAILYQRDNAVLSVEQIKRLTECEQLVGVKDGVGNMDLNINLVYTIGDRLGWLNGMPMAEVTMPAYLPIGFHSYSSAISNYIPHISRMFYDALKNGNDELVKELYRHVILPINDIRKQRKGYAVSLIKAGMEIMGLNVRNTARPPVGPVEKDHYQQLEAILKQPADRFPKKEGHHHHHH,soluble
